These results are taken from patent US20260250410A1 (SICHUAN HUIYU PHARMACEUTICAL, published 2026).

The target in experiment [1] is T1, human CDCP1 on tumor cells (human, UniProt Q9H5V8 30-836).
T1 construct: whole, on cells; cell line is named under assay or readout
T1 sequence (looked up): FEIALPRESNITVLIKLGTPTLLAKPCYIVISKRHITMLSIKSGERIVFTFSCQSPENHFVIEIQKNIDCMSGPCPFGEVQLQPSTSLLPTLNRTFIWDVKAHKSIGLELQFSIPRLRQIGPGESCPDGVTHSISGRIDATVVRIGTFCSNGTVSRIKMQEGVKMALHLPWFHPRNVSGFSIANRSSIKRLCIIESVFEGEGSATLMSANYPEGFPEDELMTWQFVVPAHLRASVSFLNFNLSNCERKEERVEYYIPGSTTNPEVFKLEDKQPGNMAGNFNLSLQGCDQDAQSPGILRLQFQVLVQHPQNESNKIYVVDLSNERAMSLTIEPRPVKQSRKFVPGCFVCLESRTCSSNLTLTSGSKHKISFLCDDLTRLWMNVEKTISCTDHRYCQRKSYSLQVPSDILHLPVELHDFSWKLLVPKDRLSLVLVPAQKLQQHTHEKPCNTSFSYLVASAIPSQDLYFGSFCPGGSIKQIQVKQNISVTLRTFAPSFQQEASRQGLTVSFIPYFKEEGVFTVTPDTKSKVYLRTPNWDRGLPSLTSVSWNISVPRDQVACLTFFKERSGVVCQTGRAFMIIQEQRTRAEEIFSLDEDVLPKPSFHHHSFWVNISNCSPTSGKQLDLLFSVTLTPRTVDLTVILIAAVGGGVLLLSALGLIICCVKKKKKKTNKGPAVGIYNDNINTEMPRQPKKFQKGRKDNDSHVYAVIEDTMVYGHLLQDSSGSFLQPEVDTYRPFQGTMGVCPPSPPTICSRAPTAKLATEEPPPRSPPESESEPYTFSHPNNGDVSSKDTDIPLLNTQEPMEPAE
The experiment is described as follows: flow cytometry, MDA-MB-231 cells. Here is the method: Referring to the method of Example 4, MDA-MB-231 cells were taken and subjected to digestion with 5 mM EDTA, 2×10⁴ tumor cells were added respectively per well, and 50 μL (PBS+2% FBS) were added; after blocking at room temperature with Fc blocker for 10 mins, an anti-CDCP1 humanized antibody at a final concentration of 200 nM was added. The obtained mixture was subjected to a 3-fold serial dilution across 8 concentration points, incubated at 4° C. for 30 mins, centrifuged and washed, and then a secondary antibody (PE anti-human IgG Fc Antibody, Biolegend, 410708) was added, then detection was performed using a flow cytometer. Geo-MFI (geometric mean fluorescence signal value) was used as the preliminary signal of antibody-cell binding, curve fitting was performed using graphpad, and the binding capacity of antibody to cells was calculated.
In general terms: In flow cytometry, cells or beads pass a laser one at a time.

For another experiment, the target named is T2, MsCDCP1 (mouse, UniProt Q5U462 30-666).
T2 construct: extracellular domain; also called mouse CDCP1; not shown: Fc or his tag
T2 sequence (looked up): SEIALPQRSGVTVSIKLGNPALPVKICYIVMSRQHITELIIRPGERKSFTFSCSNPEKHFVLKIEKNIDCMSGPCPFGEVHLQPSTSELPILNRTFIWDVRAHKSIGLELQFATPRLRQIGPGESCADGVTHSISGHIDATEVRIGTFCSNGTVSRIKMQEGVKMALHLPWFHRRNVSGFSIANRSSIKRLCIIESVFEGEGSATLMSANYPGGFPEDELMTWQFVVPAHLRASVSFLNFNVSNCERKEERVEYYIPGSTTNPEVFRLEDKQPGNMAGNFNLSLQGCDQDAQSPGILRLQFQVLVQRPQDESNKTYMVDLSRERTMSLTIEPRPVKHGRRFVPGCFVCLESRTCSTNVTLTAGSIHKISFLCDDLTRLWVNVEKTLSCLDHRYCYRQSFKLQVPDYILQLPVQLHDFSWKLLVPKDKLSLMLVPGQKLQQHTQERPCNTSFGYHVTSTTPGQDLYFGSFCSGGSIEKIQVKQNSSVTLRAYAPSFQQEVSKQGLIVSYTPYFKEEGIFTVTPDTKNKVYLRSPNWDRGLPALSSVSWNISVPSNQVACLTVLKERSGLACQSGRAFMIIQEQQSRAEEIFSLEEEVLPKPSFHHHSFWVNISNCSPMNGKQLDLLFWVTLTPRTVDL
Nature of the experiment: SPR (Caterra), antigen immobilized. The method, then: The humanized anti-CDCP1 antibodies obtained from Example 11 were subjected to gene cloning, constructed into pTT5 expression vector for a small amount of expression in CHO cells (Expi-CHOS: Gibco A29127), and purified with an Fc affinity column (AT Protein A Diamond Plus. No. AA402312). Antibody purity was analyzed by HPLC and determined by Nanodrop. High-throughput affinity assay was carried out for a small amount of antibodies by Caterra.
Further, Partial anti-CDCP1 humanized antibodies were selected for expression, and then the affinity of the antibodies to the antigens Hu-CDCP1-A, Hu-CDCP1-B, Cyno-CDCP1, and Ms-CDCP1 was detected according to the above affinity detection method.

B1: 1CP-125 (antibody, human IgG1, kappa, V domains shown)
VH: QVQLVQSGAEVKKPGASVKVSCKASGYNFISYWLHWVRQAPGQGLEWMGGIYPGNTDTTYNQKFKGRVTMTADTSTSTVYMELSSLRSEDTAVYYCIRYDYDRGMDYWGQGTLVTVSS
VL: DIQMTQSPSSLSASVGDRVTITCRASEDIYYRLAWYQQKPGKAPKLLISGATALETGVPSRFSGSGSGKDYTFTISSLQPEDIATYYCQHYWNIPWTFGQGTKVEIKR
notes: humanized 3C11, human IgG1 kappa
What is called EC50 is the concentration giving half of the maximal effect. Regarding B1, the EC50 in experiment [1] is 0.95 nM. Also, in the experiment with MsCDCP1, the binding result is “no binding (tested: 150 nM highest concentration)”.

B2: 1CP-129 (antibody, human IgG1, kappa, V domains shown)
VH: QVQLVQSGAEVKKPGASVKVSCKASGYNFISYWLHWVRQAPGQGLEWMGGIYPGNTDTTYNQKFKGRVTMTADTSTSTVYMELSSLRSEDTAVYYCIRYDYDRGMDYWGQGTLVTVSS
VL: DIQMTQSPSSLSASVGDRVTITCRASEDIYYRLAWYQQKPGKAPKLLISGATALETGVPSRFSGSGSGKDYTLTISSLQPEDIATYYCQHYWNIPWTFGQGTKVEIKR
notes: as for B1
B2 returned an EC50 in experiment [1] of 0.34 nM. Further, the binding result in the experiment with MsCDCP1 is “no binding (tested: 150 nM highest concentration)”.

B3: 1CP-128 (antibody, human IgG1, kappa, V domains shown)
VH: QVQLVQSGAEVKKPGASVKVSCKASGYNFISYWLHWVRQAPGQGLEWMGGIYPGNTDTTYNQKFKGRVTMTRDTSTSTVYMELSSLRSEDTAVYYCIRYDYDRGMDYWGQGTLVTVSS
VL: DIQMTQSPSSLSASVGDRVTITCRASEDIYYRLAWYQQKPGKAPKLLISGATALETGVPSRFSGSGSGKDYTLTISSLQPEDIATYYCQHYWNIPWTFGQGTKVEIKR
notes: as for B1
Molecule B3 returned an EC50 in experiment [1] of 0.32 nM. Moreover, the binding result in the experiment with MsCDCP1 was “no binding (tested: 150 nM highest concentration)”.

B4: 1CP-152 (antibody, human IgG1, kappa, V domains shown)
VH: EVQLVESGGGLVQPGRSLRLSCTTSGLTFTHYHMSWVRQAPGKGLEWVAIIRNKAYGYTTDYSASVRGRFTISRDDSKSILYLQMNSLKTEDTAVYYCVREGGYGYDGTFAYWGQGTLVTVSS
VL: DIQMTQSPSSLSASVGDRVTITCRASESVDNYGISFMNWFQQKPGQAPKLLIYAASNQGSGVPSRFSGSGSGTDFTLTISSMQPEDFATYYCQQSKEVPRTFGGGTKVEIKR
notes: humanized 8C9, human IgG1 kappa
By Kd is commonly meant a measure of binding affinity in units of concentration. The low end stands for higher affinity, the high end for lower affinity. Turning to B4, the midpoint of the response in experiment [1], the EC50, lay at 2.82 nM. In addition, in the experiment with MsCDCP1, the Kd worked out at 745 nM.

B5: 1CP-157 (antibody, human IgG1, kappa, V domains shown)
VH: EVQLVESGGGLVQPGRSLRLSCTTSGLTFTHYHMSWVRQAPGKGPEWVAIIRNKAYGYTTDYSASVRGRFTISRDDSKSILYLQMNSLKTEDTAVYYCVREGGYGYDGTFAYWGQGTLVTVSS
VL: DIQMTQSPSSLSASVGDRVTITCRASESVDNYGISFMNWFQQKPGQPPKLLIYAASNQGSGVPSRFSGSGSGTDFTLTISSMQPEDFATYYCQQSKEVPRTFGGGTKVEIKR
notes: as for B4
Molecule B5 registered a concentration giving a half-maximal response (EC50) in experiment [1] of 2.5 nM. Moreover, in the experiment with MsCDCP1, the binding result is “no binding (tested: 150 nM highest concentration)”.
